Measurements: patent publication US11583588B2, “Modular self assembly disassembly (SADA) technologies” (MEMORIAL SLOAN KETTERING CANCER CENTER, priority 2017, dated 2023)

Columns and labels:
[1] = tested on: TIB214, an IL15 sensitive cell line; assay: SADA-Cytokine dependent proliferation; assay type: cell-based
From the text: (§1) […] to FIG. 11D depict in vitro activity of P53-Cytokine, P63-Cytokine and P73-Cytokine SADA-Cytokines. FIG. 11A depicts a graph showing SADA-Cytokine dependent proliferation. The dose dependent proliferative response of TIB214 cells to each of P53-Cytokine (circles), P63-Cytokine (squares) and P73-Cytokine (triangles) is shown. FIG. 11B depicts a graph showing NK Cell cytotoxicity improvement from SADA-Cytokine stimulation. Bar graph summarizes peak cytotoxicity improvement from exposure of human NK cells to each SADA-Cytokine for 3 days. Cytotoxicity was assessed over a 4 hr period using a GD2(+) cell line that is sensitive to NK mediated killing and an anti-GD2 IgG (Ahmed, M. et al. (2015) OncoImmunology). Control (black bar), P53-Cytokine (medium gray bar), P63-Cytokine (dark gray bar) and P73-Cytokine (light gray bar). FIG. 11C depicts a graph showing T Cell cytotoxicity improvement from SADA-Cytokine stimulation. Bar graph summarizes peak cytotoxicity improvement from exposure of human T cells to each SADA-Cytokine for 3 days. Cytotoxicity was assessed over a 4 hr period using a GD2(+) cell line and a T-cell engaging anti-GD2 IgG-scFv bispecific (Xu, H. et al. (2015) Cancer immunology research). Control (black bar), P53-Cytokine (medium gray bar), P63-Cytokine (dark gray bar) and P73-Cytokine (light gray bar). FIG. 11D depicts a graph showing tumor growth in DKO mice with GD2(+) tumors implanted subcutaneously. Each mouse was treated with PBMCs (gray triangles) and a low dose of an anti-tumor IgG-scFv (Xu, H. et al. (2015) Cancer immunology research) and additional cytokines. Untreated tumors grew out very quickly (black lines). Tumors treated with the IgG-scFv and an Fc-Cytokine (Liu et al. 2016 JBC, http://www.jbc.org/content/291/46/23869) with a mutation to improve binding (light gray line) shrunk tumors slower than mice treated with the IgG-scFv and SADA-Cytokine (dark gray line).
(§2) This example documents the in vitro activity of exemplary SADA-cytokine multimers. […] Additionally, each complex could prime effector immune cells to kill more strongly. […]

Human NK cells = assay: NK cell cytotoxicity improvement from SADA-Cytokine stimulation; assay type: cell-based; conditions: 1 nM for three days; cytotoxicity over a 4 hr period
From the text: as §1, §2

human T cells = assay: T cell cytotoxicity improvement from SADA-Cytokine stimulation; assay type: cell-based; conditions: incubated three days; cytotoxicity over a 4 hr period, GD2(+) cell line
From the text: as §1, §2

[2] = Blood and tumor activity after P53-BiDE(noHIS) and 177Lu-Bn-DOTA administration (FIG. 6A, 6D, 6E); assay type: in vivo, mice; conditions: mouse, in vivo
Description: FIG. 6A to FIG. 6E depict pharmacokinetics of exemplary SADA-BiDE constructs in vivo. FIG. 6A depicts activity over time after P53-BiDE(noHIS) and Bn-DOTA administration. Each line represents one group, with three mice per group. Triangles denote a group that received P53-BiDE(noHIS) followed by clearing agent (CA) 72 hours later. Squares denote a group that received P53-BiDE(noHIS) without any clearing agent before ^177Lu-Bn-DOTA administration. Circles denote a group that only received ^177Lu-Bn-DOTA but not any SADA-BiDE. Dashed lines correspond to the measured blood activity, while solid lines correspond to the activity measured in the tumor. […] FIG. 6B depicts blood activity of radiolabeled 131I-SADA-BiDE in tumor-free mice. Activity measurements were normalized to the initial measurement for each group. Each line represents one group, with 4-5 mice per group. (+) symbols denote P53-BiDE, (X) symbols denote P63-BiDE and circles denote P73-BiDE. FIG. 6C depicts blood activity in tumor bearing mice treated with either IgG-BiDE (Cheal, S. M. et al. (2014) Mol Cancer Ther) or SADA-BiDE and then injected with ^177Lu-Bn-DOTA. Each line represents one group, with 3-5 mice per group. Circles denote a group that received IgG-BiDE (Cheal, S. M. et al. (2014) Mol Cancer Ther) followed by clearing agent 48 hrs later. Squares denote a group that received P53-BiDE. Diamonds denote a group that received P63-BiDE. Hexagons denote a group that received P73-BiDE. No SADA-BiDE treated mice received any clearing agent. A representative anti-tumor IgG and ^177Lu-Bn-DOTA alone clearance curves were added as a reference. (+) symbols with a dotted line denote the ^124I-labeled anti-GD2 IgG, and (x) symbols with a dotted line denote ^177Lu-Bn-DOTA alone. […]
Importantly, even though, as described in the previous examples, P53-BIDE(NOHIS), P53-BiDE, P63-BiDE and P73-BiDE is rapidly cleared from the serum, total tumor uptake of was not affected. With both 24 hours and 72 hours between P53-BIDE(NOHIS) and ^177Lu-Bn-DOTA injections, significant activity (˜15% ID/g) was measured at the tumor site (FIG. 6D) […]

tumors = assay type: in vivo, mice
Description: FIG. 8A and FIG. 8B depict tumor responses after treatment with a SADA-BiDE construct P53-BIDE(NOHIS) in vivo. FIG. 8A depicts a graph showing the change in tumor volume after administration of 1 (circles) or 4 (squares) doses of P53-BiDE. As a reference other mice were also treated with IgG-BiDE (Cheal, S. M. et al. (2014) Mol Cancer Ther) and clearing agent (triangles). FIG. 8B provides images of an exemplary mouse treated with a single dose of P53-BIDE(NOHIS) from the experimental data shown in FIG. 8A. Images are shown of the mouse on days 1, 8 and 15 with a box around the site of the tumor.
In mice with significant tumor burden (>500 mm^3 tumor volumes) a single 250 μg (1.25 nmol) dose of P53-BIDE(NOHIS) was administered followed 24 hour later by administration of 2mCi of ^177Lu-Bn-DOTA.

B1: P73-Cytokine: IL15Rα, huP73-tet, IgG3 spacer; associates non-covalently with soluble IL15; SEQ ID NO: 61 (protein)
chain: ITCPPPMSVEHADIWVKSYSLYSRERYICNSGFKRKAGTSSLTECVLNKATNVAHWTTPSLKCIRTPLGDTTHTSGRHGDEDTYYLQVRGRENFEILMKLKESLELMELVPQPLVDSYRQQQQLLQRPGGSGGAPHHHHHH
[1]
  proliferation of TIB214 relative to untreated control cells: robust proliferation
Human NK cells
  NK cell cytotoxic response against a GD2(+) neuroblastoma cell line: increased antibody-independent cytotoxic response
Human T cells
  IgG-scFv dependent killing of tumor cells by T cells: strongly increased IgG-scFv dependent killing

B2: P63-Cytokine: IL15Rα, huP63-tet, IgG3 spacer; associates non-covalently with soluble IL15; SEQ ID NO: 59 (protein)
chain: ITCPPPMSVEHADIWVKSYSLYSRERYICNSGFKRKAGTSSLTECVLNKATNVAHWTTPSLKCIRTPLGDTTHTSGRSPDDELLYLPVRGRETYEMLLKIKESLELMQYLPQHTIETYRQQQQQQHQHLLQKQGGSGGAPHHHHHH
[1]
  proliferation of TIB214 relative to untreated control cells: robust proliferation
Human NK cells
  NK cell cytotoxic response against a GD2(+) neuroblastoma cell line: increased antibody-independent cytotoxic response
Human T cells
  IgG-scFv dependent killing of tumor cells by T cells: strongly increased IgG-scFv dependent killing

B3: P53-BiDE(noHIS): hu3F8-scFv, huC825-scFv, huP53-tet, GS linker, IgG3 spacer, lacks terminal HIS tag; SEQ ID NO: 17 (protein)
chain: EIVMTQTPATLSVSAGERVTITCKASQSVSNDVTWYQQKPGQAPRLLIYSASNRYSGVPARFSGSGYGTEFTFTISSVQSEDFAVYFCQQDYSSFGCGTKLEIKRGGGGSGGGGSGGGGSQVQLVESGPGVVQPGRSLRISCAVSGFSVTNYGVHWVRQPPGKCLEWLGVIWAGGITNYNSAFMSRLTISKDNSKNTVYLQMNSLRAEDTAMYYCASRGGHYGYALDYWGQGTLVTVSSGGGGSGGGGSGGGGSGGGGSHVQLVESGGGLVQPGGSLRLSCAASGFSLTDYGVHWVRQAPGKGLEWLGVIWSGGGTAYNTALISRFTISRDNSKNTLYLQMNSLRAEDTAVYYCARRGSYPYNYFDAWGCGTLVTVSSGGGGSGGGGSGGGGSQAVVTQEPSLTVSPGGTVTLTCGSSTGAVTASNYANWVQQKPGQCPRGLIGGHNNRPPGVPARFSGSLLGGKAALTLLGAQPEDEAEYYCALWYSDHWVIGGGTKLTVLGTPLGDTTHTSGKPLDGEYFTLQIRGRERFEMFRELNEALELKDAQAGKEPGGSGGA
[2]
  activity measured at the tumor site: ~15 % ID/g
  clearance from blood without clearing agent: almost completely cleared
  retention at the target site: stably retained at the target site
tumors; mouse, in vivo
  clinical or histologic toxicity: did not induce any clinical or histologic toxicity
tumors; tumor volumes >500 mm^3, single 250 μg (1.25 nmol) dose, 2mCi 177Lu-Bn-DOTA 24 hour later, no CA
  tumor response: completely ablate tumors in all four mice treated

B4: P53-Cytokine: IL15Rα, huP53-tet, IgG3 spacer; associates non-covalently with soluble IL15; SEQ ID NO: 57 (protein)
chain: ITCPPPMSVEHADIWVKSYSLYSRERYICNSGFKRKAGTSSLTECVLNKATNVAHWTTPSLKCIRTPLGDTTHTSGKPLDGEYFTLQIRGRERFEMFRELNEALELKDAQAGKEPGGSGGAPHHHHHH
[1]
  proliferation of TIB214 relative to untreated control cells: robust proliferation
Human NK cells
  NK cell cytotoxic response against a GD2(+) neuroblastoma cell line: increased antibody-independent cytotoxic response
Human T cells
  IgG-scFv dependent killing of tumor cells by T cells: strongly increased IgG-scFv dependent killing
